Measured values taken from patent publication US20260337278 (published 2026).
Read-outs that look alike come from different tables or passages of the source.

Key:
Test in all cases: BLI
EGFRvIII [1] = biological target: T1, EGFRvIII (human, UniProt P00533)
[2] = biological target: T2, EGFR (wild-type, His-tagged or biotinylated) (human, UniProt P00533)
EGFRvIII [3] = biological target: T1, EGFRvIII; remark: listed apart in the source
[4] = biological target: T2, EGFR (wild-type, His-tagged or …); remark: listed apart in the source

Binder | Kd (EGFRvIII [1]) [nM] | Kd [2] [nM] | Kd (EGFRvIII [3]) [nM] | Kd [4] [nM]
SI-95X24 (antibody) chain 1: not shown chain 2: DVQLQESGPSLVKPSQSLSLTCTVTGYSITSDFAWNWIRQFPGNKLEWMGYISYSGNTRYNPSLKSRISITRDTSKNQFFLQLNSVTIEDTATYYCVTAGRGFPYWGQGTLVTVSAGGGGSGGGGSGGGGSDILMTQSPSSMSVSLGDTVSITCHSSQDINSNIGWLQQRPGKSFKGLIYHGTNLDDEVPSRFSGSGSGADYSLTISSLESEDFADYYCVQYAQFPWTFGGGTKLEIKGGGGSGSGSGGGGGSGGGGSGGGGSDIQMTQSPSSLSASVGDRVTITCRSSQNIVHSNGNTYLDWYQQTPGKAPKLLIYKVSNRFSGVPSRFSGSGSGTDFTFTISSLQPEDIATYYCFQYSHVPWTFGQGTKLQITRTVAAPSVFIFPPSDEQLKSGTASVVCLLNNFYPREAKVQWKVDNALQSGNSQESVTEQDSKDSTYSLSSTLTLSKADYEKHKVYACEVTHQGLSSPVTKSFNRGEC | 1.45 | 7.94 |  | 
SI-95X61 (antibody) chain 1: not shown chain 2: EIVLTQSPSTLSVSPGERATFSCRASQSIGTNIHWYQQKPGKPPRLLIKYASESISGIPDRFSGSGSGTEFTLTISSVQSEDFAVYYCQQNNNWPTTFGPGTKLTVLRTVAAPSVFIFPPSDEQLKSGTASVVCLLNNFYPREAKVQWKVDNALQSGNSQESVTEQDSKDSTYSLSSTLTLSKADYEKHKVYACEVTHQGLSSPVTKSFNRGECGGGGSGGGGGSGGGGSGGGGSQVQLQESGPSLVKPSQTLSLTCTVSGYSITSDFAWNWIRQFPGRKLEWMGYISYSGNTRYNPSLKSRFTISRDTSKNQFYLKLRSVTIADTAVYYCVTAGRGFPYWGQGTLVTVSSGGGGSGGGGSGGGGSDIVMTQSPSSVSLSLGDRVTITCHSSQDINSNIGWLQQKPGKAFKGLIYHGTNLDDGVPSRFSGSGSGADYTLTISSLQAEDFATYYCVQYAQFPWTFGPGTKLEIK |  |  | 0.573 | 4.89
SI-95X48 (antibody) chain 1: not shown chain 2: EIVLTQSPSTLSVSPGERATFSCRASQSIGTNIHWYQQKPGKPPRLLIKYASESISGIPDRFSGSGSGTEFTLTISSVQSEDFAVYYCQQNNNWPTTFGPGTKLTVLRTVAAPSVFIFPPSDEQLKSGTASVVCLLNNFYPREAKVQWKVDNALQSGNSQESVTEQDSKDSTYSLSSTLTLSKADYEKHKVYACEVTHQGLSSPVTKSFNRGEC |  |  | 0.404 | 25.5
SI-95X66 (antibody) chain 1: not shown chain 2: DILMTQSPSSMSVSLGDTVSITCHSSQDINSNIGWLQQRPGKSFKGLIYHGTNLDDEVPSRFSGSGSGADYSLTISSLESEDFADYYCVQYAQFPWTFGGGTKLEIKRTVAAPSVFIFPPSDEQLKSGTASVVCLLNNFYPREAKVQWKVDNALQSGNSQESVTEQDSKDSTYSLSSTLTLSKADYEKHKVYACEVTHQGLSSPVTKSFNRGEC |  |  | 0.576 | 4.65
SI-95X67 (antibody) chain 1: not shown chain 2: DILMTQSPSSMSVSLGDTVSITCHSSQDINSNIGWLQQRPGKSFKGLIYHGTNLDDEVPSRFSGSGSGADYSLTISSLESEDFADYYCVQYAQFPWTFGGGTKLEIKRTVAAPSVFIFPPSDEQLKSGTASVVCLLNNFYPREAKVQWKVDNALQSGNSQESVTEQDSKDSTYSLSSTLTLSKADYEKHKVYACEVTHQGLSSPVTKSFNRGEC |  |  | 1.24 | 7.06
SI-95X30 (antibody) chain 1: not shown chain 2: DIQMTQSPSSLSASVGDRVTITCRSSQNIVHSNGNTYLDWYQQTPGKAPKLLIYKVSNRFSGVPSRFSGSGSGTDFTFTISSLQPEDIATYYCFQYSHVPWTFGQGTKLQITRTVAAPSVFIFPPSDEQLKSGTASVVCLLNNFYPREAKVQWKVDNALQSGNSQESVTEQDSKDSTYSLSSTLTLSKADYEKHKVYACEVTHQGLSSPVTKSFNRGECGGGGSGSGSGGGGGSGGGGSGGGGSDVQLQESGPSLVKPSQSLSLTCTVTGYSITSDFAWNWIRQFPGNKLEWMGYISYSGNTRYNPSLKSRISITRDTSKNQFFLQLNSVTIEDTATYYCVTAGRGFPYWGQGTLVTVSAGGGGSGGGGSGGGGSDILMTQSPSSMSVSLGDTVSITCHSSQDINSNIGWLQQRPGKSFKGLIYHGTNLDDEVPSRFSGSGSGADYSLTISSLESEDFADYYCVQYAQFPWTFGGGTKLEIK | 1.24 | 8.84 |  | 

The remaining binders from weak to strong by Kd (EGFRvIII [1]), led by results:

Kd (EGFRvIII [1]) [nM] | Kd [2] [nM] | Kd (EGFRvIII [3]) [nM] | Kd [4] [nM] | Binder
1.21 | 13.4 |  |  | SI-95X25 (antibody) chain 1: not shown chain 2: DVQLQESGPSLVKPSQSLSLTCTVTGYSITSDFAWNWIRQFPGNKLEWMGYISYSGNTRYNPSLKSRISITRDTSKNQFFLQLNSVTIEDTATYYCVTAGRGFPYWGQGTLVTVSAGGGGSGGGGSGGGGSDILMTQSPSSMSVSLGDTVSITCHSSQDINSNIGWLQQRPGKSFKGLIYHGTNLDDEVPSRFSGSGSGADYSLTISSLESEDFADYYCVQYAQFPWTFGGGTKLEIKGGGGSGGGGSGSGSGGGGGSGGGGSGGGGSDIQMTQSPSSLSASVGDRVTITCRSSQNIVHSNGNTYLDWYQQTPGKAPKLLIYKVSNRFSGVPSRFSGSGSGTDFTFTISSLQPEDIATYYCFQYSHVPWTFGQGTKLQITRTVAAPSVFIFPPSDEQLKSGTASVVCLLNNFYPREAKVQWKVDNALQSGNSQESVTEQDSKDSTYSLSSTLTLSKADYEKHKVYACEVTHQGLSSPVTKSFNRGEC
1.12 | 10.1 |  |  | SI-95X29 (antibody) chain 1: not shown chain 2: DIQMTQSPSSLSASVGDRVTITCRSSQNIVHSNGNTYLDWYQQTPGKAPKLLIYKVSNRFSGVPSRFSGSGSGTDFTFTISSLQPEDIATYYCFQYSHVPWTFGQGTKLQITRTVAAPSVFIFPPSDEQLKSGTASVVCLLNNFYPREAKVQWKVDNALQSGNSQESVTEQDSKDSTYSLSSTLTLSKADYEKHKVYACEVTHQGLSSPVTKSFNRGECSGSGSGGGGGSGGGGSGGGGSDVQLQESGPSLVKPSQSLSLTCTVTGYSITSDFAWNWIRQFPGNKLEWMGYISYSGNTRYNPSLKSRISITRDTSKNQFFLQLNSVTIEDTATYYCVTAGRGFPYWGQGTLVTVSAGGGGSGGGGSGGGGSDILMTQSPSSMSVSLGDTVSITCHSSQDINSNIGWLQQRPGKSFKGLIYHGTNLDDEVPSRFSGSGSGADYSLTISSLESEDFADYYCVQYAQFPWTFGGGTKLEIK
1.08 | 10.5 |  |  | SI-95X31 (antibody) chain 1: not shown chain 2: DIQMTQSPSSLSASVGDRVTITCRSSQNIVHSNGNTYLDWYQQTPGKAPKLLIYKVSNRFSGVPSRFSGSGSGTDFTFTISSLQPEDIATYYCFQYSHVPWTFGQGTKLQITRTVAAPSVFIFPPSDEQLKSGTASVVCLLNNFYPREAKVQWKVDNALQSGNSQESVTEQDSKDSTYSLSSTLTLSKADYEKHKVYACEVTHQGLSSPVTKSFNRGECGGGGSGGGGSGSGSGGGGGSGGGGSGGGGSDVQLQESGPSLVKPSQSLSLTCTVTGYSITSDFAWNWIRQFPGNKLEWMGYISYSGNTRYNPSLKSRISITRDTSKNQFFLQLNSVTIEDTATYYCVTAGRGFPYWGQGTLVTVSAGGGGSGGGGSGGGGSDILMTQSPSSMSVSLGDTVSITCHSSQDINSNIGWLQQRPGKSFKGLIYHGTNLDDEVPSRFSGSGSGADYSLTISSLESEDFADYYCVQYAQFPWTFGGGTKLEIK
0.628 | 0.686 |  |  | SI-95X35 (antibody) chain 1: not shown chain 2: DILMTQSPSSMSVSLGDTVSITCHSSQDINSNIGWLQQRPGKSFKGLIYHGTNLDDEVPSRFSGSGSGADYSLTISSLESEDFADYYCVQYAQFPWTFGGGTKLEIKRTVAAPSVFIFPPSDEQLKSGTASVVCLLNNFYPREAKVQWKVDNALQSGNSQESVTEQDSKDSTYSLSSTLTLSKADYEKHKVYACEVTHQGLSSPVTKSFNRGEC
0.593 | 4.17 |  |  | SI-95X18 (antibody) chain 1: not shown chain 2: DIQMTQSPSSLSASVGDRVTITCRSSQNIVHSNGNTYLDWYQQTPGKAPKLLIYKVSNRFSGVPSRFSGSGSGTDFTFTISSLQPEDIATYYCFQYSHVPWTFGQGTKLQITRTVAAPSVFIFPPSDEQLKSGTASVVCLLNNFYPREAKVQWKVDNALQSGNSQESVTEQDSKDSTYSLSSTLTLSKADYEKHKVYACEVTHQGLSSPVTKSFNRGEC
0.579 | 7.56 |  |  | SI-95X28 (antibody) chain 1: not shown chain 2: DILMTQSPSSMSVSLGDTVSITCHSSQDINSNIGWLQQRPGKSFKGLIYHGTNLDDEVPSRFSGSGSGADYSLTISSLESEDFADYYCVQYAQFPWTFGGGTKLEIKGGGGSGGGGSGGGGSDVQLQESGPSLVKPSQSLSLTCTVTGYSITSDFAWNWIRQFPGNKLEWMGYISYSGNTRYNPSLKSRISITRDTSKNQFFLQLNSVTIEDTATYYCVTAGRGFPYWGQGTLVTVSAGGGGSGGGGSGSGSGGGGGSGGGGSGGGGSDIQMTQSPSSLSASVGDRVTITCRSSQNIVHSNGNTYLDWYQQTPGKAPKLLIYKVSNRFSGVPSRFSGSGSGTDFTFTISSLQPEDIATYYCFQYSHVPWTFGQGTKLQITRTVAAPSVFIFPPSDEQLKSGTASVVCLLNNFYPREAKVQWKVDNALQSGNSQESVTEQDSKDSTYSLSSTLTLSKADYEKHKVYACEVTHQGLSSPVTKSFNRGEC
0.507 | 10.7 |  |  | SI-95X27 (antibody) chain 1: not shown chain 2: DILMTQSPSSMSVSLGDTVSITCHSSQDINSNIGWLQQRPGKSFKGLIYHGTNLDDEVPSRFSGSGSGADYSLTISSLESEDFADYYCVQYAQFPWTFGGGTKLEIKGGGGSGGGGSGGGGSDVQLQESGPSLVKPSQSLSLTCTVTGYSITSDFAWNWIRQFPGNKLEWMGYISYSGNTRYNPSLKSRISITRDTSKNQFFLQLNSVTIEDTATYYCVTAGRGFPYWGQGTLVTVSAGGGGSGSGSGGGGGSGGGGSGGGGSDIQMTQSPSSLSASVGDRVTITCRSSQNIVHSNGNTYLDWYQQTPGKAPKLLIYKVSNRFSGVPSRFSGSGSGTDFTFTISSLQPEDIATYYCFQYSHVPWTFGQGTKLQITRTVAAPSVFIFPPSDEQLKSGTASVVCLLNNFYPREAKVQWKVDNALQSGNSQESVTEQDSKDSTYSLSSTLTLSKADYEKHKVYACEVTHQGLSSPVTKSFNRGEC
0.375 | 0.68 |  |  | SI-95X3 (antibody) chain 1: not shown chain 2: DILMTQSPSSMSVSLGDTVSITCHSSQDINSNIGWLQQRPGKSFKGLIYHGTNLDDEVPSRFSGSGSGADYSLTISSLESEDFADYYCVQYAQFPWTFGGGTKLEIKRTVAAPSVFIFPPSDEQLKSGTASVVCLLNNFYPREAKVQWKVDNALQSGNSQESVTEQDSKDSTYSLSSTLTLSKADYEKHKVYACEVTHQGLSSPVTKSFNRGEC
